Source: paper PMC4505582 (The Journal of Biological Chemistry, 2015)
Values belong to the binder of their own block, whether it stands above or below them.

B2: F-ATPase subunit f (natural protein, bovine, UniProt Q28851 1-88, looked up)
chain: MASVVPLKEKKLLEVKLGELPSWILMRDFTPSGIAGAFQRGYYRYYNKYVNVKKGSIAGLSMVLAAYVFLNYCRSYKELKHERLRKYH
notes: ATP synthase subunit f, mitochondrial, bovine; endogenous supernumerary membrane subunit of the purified F-ATPase; source: purified from bovine mitochondrial membranes as part of the F-ATPase complex
B4: F-ATPase subunit d (natural protein)
chain: not shown
notes: ATP synthase subunit d, mitochondrial, bovine; endogenous subunit of the peripheral stalk of the purified F-ATPase; source: purified from bovine mitochondrial membranes as part of the F-ATPase complex
B7: F-ATPase subunit F6 (natural protein, bovine, UniProt P02721 33-108, looked up)
chain: NKELDPVQKLFVDKIREYRTKRQTSGGPVDAGPEYQQDLDRELFKLKQMYGKADMNTFPNFTFEDPKFEVVEKPQS
notes: ATP synthase coupling factor 6, mitochondrial, bovine; endogenous subunit of the peripheral stalk of the purified F-ATPase; printed length 76 amino acids; source: purified from bovine mitochondrial membranes as part of the F-ATPase complex

Key:
Conditions in all cases: both partners purified
F-ATPase subunit F6 = target: B7; experiment: cross-linking; purified monomeric bovine F-ATPase (2 μM, 1.16 mg/ml) in detergent and phospholipids reacted with 2 mM DSS(d0/d12), pH 8.0, 2 h; tryptic digest, cation exchange fractionation, linked lysines identified by mass spectrometry
F-ATPase subunit d [1] = target: B4; experiment: as above
F-ATPase subunit b [2] = target: T1, F-ATPase subunit b (bovine, UniProt P13619 43-256); experiment: as above
T1 construct: ATP synthase subunit b, mitochondrial, bovine; endogenous subunit of the peripheral stalk of the purified F-ATPase; source: purified from bovine mitochondrial membranes as part of the F-ATPase complex
T1 sequence (looked up): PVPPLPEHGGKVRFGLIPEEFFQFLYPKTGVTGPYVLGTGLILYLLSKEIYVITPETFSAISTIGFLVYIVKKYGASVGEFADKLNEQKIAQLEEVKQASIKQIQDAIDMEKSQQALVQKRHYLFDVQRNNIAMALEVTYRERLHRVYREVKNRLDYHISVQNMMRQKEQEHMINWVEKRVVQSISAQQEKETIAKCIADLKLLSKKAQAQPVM

F-ATPase subunit g = target: T2, F-ATPase subunit g (bovine, UniProt Q28852 1-103); experiment: cross-linking; purified monomeric bovine F-ATPase reacted with BS^3(d0/d12) at the same concentration and under the same conditions as DSS; tryptic digest, linked lysines identified by mass spectrometry
T2 construct: ATP synthase subunit g, mitochondrial, bovine; endogenous supernumerary membrane subunit of the purified F-ATPase; source: purified from bovine mitochondrial membranes as part of the F-ATPase complex
T2 sequence (looked up): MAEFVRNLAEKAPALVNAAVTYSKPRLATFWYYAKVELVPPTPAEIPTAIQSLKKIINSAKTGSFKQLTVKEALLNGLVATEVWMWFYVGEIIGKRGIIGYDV

F-ATPase α-subunit = target: T3, F-ATPase α-subunit (bovine, UniProt P19483 44-553); experiment: cross-linking; purified monomeric bovine F-ATPase (2 μM, 1.16 mg/ml) in detergent and phospholipids reacted with 2 mM DSS(d0/d12), pH 8.0, 2 h; tryptic digest, cation exchange fractionation, linked lysines identified by mass spectrometry
T3 construct: ATP synthase subunit alpha, mitochondrial, bovine; endogenous subunit of the F1 domain of the purified F-ATPase (three copies in the enzyme); also called subunit α; source: purified from bovine mitochondrial membranes as part of the F-ATPase complex

F-ATPase subunit b [3] = target: T1, F-ATPase subunit b; experiment: cross-linking; purified monomeric bovine F-ATPase reacted with BS^3(d0/d12) at the same concentration and under the same conditions as DSS; tryptic digest, linked lysines identified by mass spectrometry
[4] = target: T4, F-ATPase subunit 6.8PL (6.8-kDa proteolipid) (bovine, UniProt P14790 1-60); experiment: cross-linking; purified monomeric bovine F-ATPase (2 μM, 1.16 mg/ml) in detergent and phospholipids reacted with 2 mM DSS(d0/d12), pH 8.0, 2 h; tryptic digest, cation exchange fractionation, linked lysines identified by mass spectrometry
T4 construct: 6.8 kDa mitochondrial proteolipid, bovine; endogenous supernumerary membrane subunit of the purified F-ATPase; source: purified from bovine mitochondrial membranes as part of the F-ATPase complex

F-ATPase subunit f = target: B2; experiment: as above
F-ATPase subunit d [5] = target: B4; experiment: as above; remark: listed apart in the source
F-ATPase subunit b [6] = target: T1, F-ATPase subunit b; experiment: as above; remark: listed apart in the source

T3 sequence (P19483 44-553): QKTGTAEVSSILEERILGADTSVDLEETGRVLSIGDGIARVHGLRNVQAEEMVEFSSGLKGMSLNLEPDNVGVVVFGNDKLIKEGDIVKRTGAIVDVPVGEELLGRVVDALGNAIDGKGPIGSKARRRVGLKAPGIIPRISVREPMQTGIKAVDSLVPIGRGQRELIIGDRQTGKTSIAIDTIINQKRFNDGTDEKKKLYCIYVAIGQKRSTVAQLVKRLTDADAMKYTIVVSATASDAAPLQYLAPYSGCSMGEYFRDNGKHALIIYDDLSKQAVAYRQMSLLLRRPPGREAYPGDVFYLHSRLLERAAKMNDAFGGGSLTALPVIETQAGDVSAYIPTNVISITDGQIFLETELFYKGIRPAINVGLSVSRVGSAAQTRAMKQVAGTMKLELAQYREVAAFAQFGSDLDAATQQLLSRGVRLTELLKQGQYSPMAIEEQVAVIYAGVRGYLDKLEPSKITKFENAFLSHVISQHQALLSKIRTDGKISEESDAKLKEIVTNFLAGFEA

binding result (F-ATPase subunit F6): binds
binding result (F-ATPase subunit d [1]): binds
binding result (F-ATPase subunit b [2]): binds
B1: F-ATPase subunit ATP8 (natural protein, bovine, UniProt P03929 1-66, looked up)
chain: MPQLDTSTWLTMILSMFLTLFIIFQLKVSKHNFYHNPELTPTKMLKQNTPWETKWTKIYLPLLLPL
notes: ATP synthase protein 8 (A6L), encoded in mitochondrial DNA, bovine; endogenous membrane subunit of the purified F-ATPase; C terminus at residue 66 as printed; also called A6L; source: purified from bovine mitochondrial membranes as part of the F-ATPase complex

Binder: B2
binding result (F-ATPase subunit g): binds

binding result (F-ATPase α-subunit): binds
B3: F-ATPase subunit oscp (natural protein, bovine, UniProt P13621 24-213, looked up)
chain: FAKLVRPPVQIYGIEGRYATALYSAASKQNKLEQVEKELLRVGQILKEPKMAASLLNPYVKRSVKVKSLSDMTAKEKFSPLTSNLINLLAENGRLTNTPAVISAFSTMMSVHRGEVPCTVTTASALDEATLTELKTVLKSFLSKGQVLKLEVKIDPSIMGGMIVRIGEKYVDMSAKTKIQKLSRAMREIL
notes: ATP synthase subunit O (oligomycin sensitivity conferral protein), mitochondrial, bovine; endogenous subunit of the peripheral stalk of the purified F-ATPase; source: purified from bovine mitochondrial membranes as part of the F-ATPase complex

Binder: B4
binding result (F-ATPase subunit b [3]): binds

binding result [4]: binds
B5: F-ATPase subunit DAPIT (diabetes-associated protein in insulin-sensitive tissues) (natural protein, bovine, UniProt Q3ZBI7 1-58, looked up)
chain: MAGPEADAQFHFTGIKKYFNSYTLTGRMNCVLATYGSIALIVLYFKLRSKKTPAVKAT
notes: DAPIT (diabetes-associated protein in insulin-sensitive tissues), bovine; endogenous supernumerary membrane subunit of the purified F-ATPase; source: purified from bovine mitochondrial membranes as part of the F-ATPase complex

binding result (F-ATPase subunit f): binds
B6: F-ATPase subunit e (natural protein, bovine, UniProt Q00361 1-71, looked up)
chain: MVPPVQVSPLIKLGRYSALFLGMAYGAKRYNYLKPRAEEERRLAAEEKKKRDEQKRIERELAEAQEDTILK
notes: ATP synthase subunit e, mitochondrial, bovine; endogenous supernumerary membrane subunit of the purified F-ATPase; source: purified from bovine mitochondrial membranes as part of the F-ATPase complex

Binder: B7
binding result (F-ATPase subunit d [5]): binds
binding result (F-ATPase subunit b [6]): binds
